Data as given in US20050064518A1.

Key:
[1] = target: monoclonal antibody 7A11; experiment: ELISA competition: shed CA 125/O772P at 25-fold excess against 7A11 binding to plate-bound O772P 3-repeat
[2] = target: monoclonal antibody 325.1; experiment: ELISA competition: shed CA 125/O772P at 25-fold excess against 325.1 binding to plate-bound O772P 3-repeat
[3] = target: monoclonal antibody 16C7; experiment: ELISA competition: shed CA 125/O772P at 25-fold excess against 16C7 binding to plate-bound O772P 3-repeat
[4] = target: monoclonal antibody 7G10; experiment: ELISA competition: shed CA 125/O772P at 25-fold excess against 7G10 binding to plate-bound O772P 3-repeat
[5] = target: monoclonal antibody 4E7; experiment: ELISA competition: shed CA 125/O772P at 25-fold excess against 4E7 binding to plate-bound O772P 3-repeat
[6] = target: OC125; experiment: ELISA competition: shed CA 125/O772P at 25-fold w/w excess against antibody binding to plate-bound O772P 3-repeat
[7] = target: monoclonal antibody 501.1; experiment: as above
[8] = target: monoclonal antibody 776.1; experiment: as above
[9] = target: monoclonal antibody 368.1; experiment: as above
[10] = target: monoclonal antibody 117.1; experiment: as above
[11] = target: monoclonal antibody 8A1; experiment: ELISA competition: shed CA 125/O772P at 25-fold excess against 8A1 binding to plate-bound O772P 3-repeat
[12] = target: monoclonal antibody 117.1; experiment: flow cytometry competition (representative plot): shed CA 125/O772P against 117.1 binding to OVCAR-3 cells
[13] = target: monoclonal antibody 8B5; experiment: ELISA competition: shed CA 125/O772P at 25-fold excess against 8B5 binding to plate-bound O772P 3-repeat
[14] = target: monoclonal antibody 654.1; experiment: ELISA competition: shed CA 125/O772P at 25-fold excess against 654.1 binding to plate-bound O772P 3-repeat
[15] = target: monoclonal antibody 7F10; experiment: ELISA competition: shed CA 125/O772P at 25-fold excess against 7F10 binding to plate-bound O772P 3-repeat
[16] = target: monoclonal antibody 8C3; experiment: ELISA competition: shed CA 125/O772P at 25-fold excess against 8C3 binding to plate-bound O772P 3-repeat
[17] = target: monoclonal antibody 446.1; experiment: ELISA competition: shed CA 125/O772P at 25-fold excess against 446.1 binding to plate-bound O772P 3-repeat
[18] = target: monoclonal antibody 8G9; experiment: ELISA competition: shed CA 125/O772P at 25-fold excess against 8G9 binding to plate-bound O772P 3-repeat
[19] = target: monoclonal antibody 16H9; experiment: ELISA competition: shed CA 125/O772P at 25-fold excess against 16H9 binding to plate-bound O772P 3-repeat
[20] = target: monoclonal antibody 15C9; experiment: ELISA competition: shed CA 125/O772P at 25-fold excess against 15C9 binding to plate-bound O772P 3-repeat
[21] = target: monoclonal antibody 621.1; experiment: ELISA competition: shed CA 125/O772P at 25-fold excess against 621.1 binding to plate-bound O772P 3-repeat
[22] = target: monoclonal antibody 7H1; experiment: ELISA competition: shed CA 125/O772P at 25-fold excess against 7H1 binding to plate-bound O772P 3-repeat
[23] = target: monoclonal antibody 7C6; experiment: ELISA competition: shed CA 125/O772P at 25-fold excess against 7C6 binding to plate-bound O772P 3-repeat
[24] = target: monoclonal antibody 725.1; experiment: ELISA competition: shed CA 125/O772P at 25-fold excess against 725.1 binding to plate-bound O772P 3-repeat
[25] = target: M11; experiment: flow cytometry competition (representative plot): shed CA 125/O772P against M11 binding to OVCAR-3 cells
[26] = target: monoclonal antibody 633.1; experiment: ELISA competition: shed CA 125/O772P at 25-fold excess against 633.1 binding to plate-bound O772P 3-repeat
[27] = target: monoclonal antibody 8E3; experiment: ELISA competition: shed CA 125/O772P at 25-fold excess against 8E3 binding to plate-bound O772P 3-repeat

monoclonal antibody 117.1, sequence (chain, as listed by the source, chain 1 of 2): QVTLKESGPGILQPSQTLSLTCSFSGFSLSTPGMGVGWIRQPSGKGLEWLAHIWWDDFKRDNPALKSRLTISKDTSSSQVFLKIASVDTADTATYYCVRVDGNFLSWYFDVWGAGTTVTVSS
monoclonal antibody 117.1, sequence (chain, as listed by the source, chain 2 of 2): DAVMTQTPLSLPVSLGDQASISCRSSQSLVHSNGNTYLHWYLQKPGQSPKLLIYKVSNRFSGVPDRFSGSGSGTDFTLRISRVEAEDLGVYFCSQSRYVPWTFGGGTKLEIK
monoclonal antibody 776.1, sequence (chain, as listed by the source, chain 1 of 2): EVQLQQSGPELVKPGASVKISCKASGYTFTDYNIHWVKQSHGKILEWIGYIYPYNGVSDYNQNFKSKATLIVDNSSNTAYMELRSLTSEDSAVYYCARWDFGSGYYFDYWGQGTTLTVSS
monoclonal antibody 776.1, sequence (chain, as listed by the source, chain 2 of 2): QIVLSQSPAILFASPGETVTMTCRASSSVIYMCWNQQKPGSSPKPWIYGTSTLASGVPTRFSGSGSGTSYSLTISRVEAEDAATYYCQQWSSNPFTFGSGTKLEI
monoclonal antibody 725.1, sequence (chain, as listed by the source, chain 1 of 2): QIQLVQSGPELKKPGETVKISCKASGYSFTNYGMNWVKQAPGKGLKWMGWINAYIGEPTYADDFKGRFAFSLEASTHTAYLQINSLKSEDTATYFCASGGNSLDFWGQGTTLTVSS
monoclonal antibody 725.1, sequence (chain, as listed by the source, chain 2 of 2): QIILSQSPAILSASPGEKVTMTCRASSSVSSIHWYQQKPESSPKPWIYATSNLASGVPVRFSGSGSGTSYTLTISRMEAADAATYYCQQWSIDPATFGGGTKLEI
monoclonal antibody 16H9, sequence (chain, as listed by the source, chain 1 of 2): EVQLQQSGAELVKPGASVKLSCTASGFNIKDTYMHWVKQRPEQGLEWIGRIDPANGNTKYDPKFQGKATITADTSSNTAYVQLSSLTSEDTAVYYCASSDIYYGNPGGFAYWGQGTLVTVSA
monoclonal antibody 16H9, sequence (chain, as listed by the source, chain 2 of 2): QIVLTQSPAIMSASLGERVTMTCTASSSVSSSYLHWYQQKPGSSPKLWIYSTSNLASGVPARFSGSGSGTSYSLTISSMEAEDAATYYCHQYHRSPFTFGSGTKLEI
OC125, sequence (chain, as listed by the source, chain 1 of 2): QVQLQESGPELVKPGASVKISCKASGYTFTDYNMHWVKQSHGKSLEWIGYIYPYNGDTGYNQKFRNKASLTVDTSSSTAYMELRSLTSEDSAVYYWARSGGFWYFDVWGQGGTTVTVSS
OC125, sequence (chain, as listed by the source, chain 2 of 2): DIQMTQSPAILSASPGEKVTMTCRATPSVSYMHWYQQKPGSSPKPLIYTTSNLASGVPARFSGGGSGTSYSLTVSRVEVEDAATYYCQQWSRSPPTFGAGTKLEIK
monoclonal antibody 501.1, sequence (chain, as listed by the source, chain 1 of 2): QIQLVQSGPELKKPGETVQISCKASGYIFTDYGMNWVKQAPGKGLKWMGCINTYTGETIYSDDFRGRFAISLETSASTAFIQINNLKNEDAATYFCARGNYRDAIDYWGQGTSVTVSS
monoclonal antibody 501.1, sequence (chain, as listed by the source, chain 2 of 2): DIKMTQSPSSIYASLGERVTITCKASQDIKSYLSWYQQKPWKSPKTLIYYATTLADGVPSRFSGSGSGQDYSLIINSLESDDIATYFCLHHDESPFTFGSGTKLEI
monoclonal antibody 368.1, sequence (chain, as listed by the source, chain 1 of 2): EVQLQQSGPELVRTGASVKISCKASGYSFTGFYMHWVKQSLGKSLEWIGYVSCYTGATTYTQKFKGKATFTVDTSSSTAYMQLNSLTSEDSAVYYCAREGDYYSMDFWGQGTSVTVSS
monoclonal antibody 368.1, sequence (chain, as listed by the source, chain 2 of 2): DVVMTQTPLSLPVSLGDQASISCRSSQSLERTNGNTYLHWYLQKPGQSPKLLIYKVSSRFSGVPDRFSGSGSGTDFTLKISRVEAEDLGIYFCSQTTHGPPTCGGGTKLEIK

% inh. binding [1]: 5%
% inh. binding [2]: 2%
% inh. binding [3]: 3%
% inh. binding [4]: 3%
% inh. binding [5]: 7%
percent inhibition of binding [6]: 95%
percent inhibition of binding [7]: 15%
percent inhibition of binding [8]: 17%
percent inhibition of binding [9]: 0%
percent inhibition of binding [10]: 11%
% inh. binding [11]: 8%
IC50 [12]: > 1000 µg/mL
% inh. binding [13]: 6%
% inh. binding [14]: 9%
% inh. binding [15]: 6%
% inh. binding [16]: 5%
% inh. binding [17]: 7%
% inh. binding [18]: 7%
% inh. binding [19]: 0%
% inh. binding [20]: 5%
% inh. binding [21]: 2%
% inh. binding [22]: 4%
% inh. binding [23]: 2%
% inh. binding [24]: 7%
IC50 [25]: 3 µg/mL
% inh. binding [26]: 7%
% inh. binding [27]: 4%
Substance: shed CA 125/O772P polypeptide, Q8WXI7 1-14401
